From article PMC12116771

Key:
[1] = system: Scd6 (His-Scd6-FLAG, unmethylated) (Saccharomyces cerevisiae); assay: EMSA; settings: EMSA: 10 mM Tris pH 8, 50 mM NaCl, 0.05% NP-40, 6% glycerol, 1 mM DTT, 2 ug/ml BSA, 0.5 ug/ml tRNA, 30 C 30 min; 2.5% agarose, 1x MOPS, EtBr
[2] = system: Scd6 (His-Scd6-FLAG), arginine-methylated in vitro by Hmt1 (Saccharomyces cerevisiae); assay: EMSA; settings: EMSA: 10 mM Tris pH 8, 50 mM NaCl, 0.05% NP-40, 6% glycerol, 1 mM DTT, 2 ug/ml BSA, 0.5 ug/ml tRNA, 30 C 30 min; 2.5% agarose, 1x MOPS, EtBr

SRS2 5'UTR 200-mer RNA
Kd [1]: 2860 nM
Kd [2]: 2700 nM
